From paper PMC8613972

Legend:
[1] = target: Naja siamensis venom; assay: biolayer interferometry (wavelength shift, AUC of association curve); details: 120-s association phase; n=3; parent: est. 23; read off a plot
[2] = target: Naja mossambica venom; assay: as above; details: 120-s association phase; n=3; parent: est. 29; read off a plot

Work on “Homininae α-1 nAChR orthosteric site (loop C) mimotope, native T189F; S191A” yielded a response [1] of 31 AUC and a response [2] of 47 AUC.
“Homininae α-1 nAChR orthosteric site (loop C) mimotope, native S187W; S191A” showed a response [1] of 28 AUC and a response [2] of 38 AUC.
In the case of “Homininae α-1 nAChR orthosteric site (loop C) mimotope, native S191A”, the response [1] is reported as 28 AUC and the response [2] is reported as 35 AUC.
In the case of “Homininae α-1 nAChR orthosteric site (loop C) mimotope, native S187W; T189F; S191A”, the response [1] is reported as 53 AUC and the response [2] is reported as 76 AUC.
“Homininae α-1 nAChR orthosteric site (loop C) mimotope, native S187W” gave a response [1] of 16 AUC and a response [2] of 20 AUC.
“Homininae α-1 nAChR orthosteric site (loop C) mimotope, native S187W; T189F” gave a response [1] of 50 AUC and a response [2] of 88 AUC.
Substance “Homininae α-1 nAChR orthosteric site (loop C) mimotope, native T189F” has a response [1] of 32 AUC and a response [2] of 46 AUC.
